Data from publication PMC5094862 (Journal of the American Chemical Society, 2016).

Biological target: the molecule itself
Test: SEC

Protein | binding result
synthetic L-GroES (natural protein, E. coli, UniProt P0A6F9 1-97, looked up) MNIRPLHDRVIVKRKEVETKSAGGIVLTGSAAAKSTRGEVLAVGNGRILENGEVKPLDVKVGDIVIFNDGYGVKSEKIDNEEVLIMSESDILAIVEA | binds
recombinant GroES (natural protein, E. coli, UniProt P0A6F9 1-97, looked up) MNIRPLHDRVIVKRKEVETKSAGGIVLTGSAAAKSTRGEVLAVGNGRILENGEVKPLDVKVGDIVIFNDGYGVKSEKIDNEEVLIMSESDILAIVEA | binds
